Source: paper PMC7049810, “Outer membrane lipoprotein NlpI scaffolds peptidoglycan hydrolases within multi‐enzyme complexes in Escherichia coli” (The EMBO Journal, 2020)

Columns and labels:
PBP7, purified = molecular target: T1, PBP7, purified (Escherichia coli, UniProt P0AFI5 26-310, where used as the labelled protein in MST: NT647 RED-NHS dye on amines); experiment: pull-down; Ni2+-NTA agarose beads; His-tagged protein with untagged or native ligand, overnight at 4°C; 10 mM HEPES/NaOH, 10 mM MgCl2, 150 mM NaCl, 0.05% Triton X-100, pH 7.5; washes with 30 mM imidazole; SDS-PAGE; settings: both partners purified
T1 construct: PBP7 (DD-endopeptidase) of E. coli; source: E. coli BL21 (λDE3), purified (HisTrap HP, Superdex 200)
T1 sequence (looked up): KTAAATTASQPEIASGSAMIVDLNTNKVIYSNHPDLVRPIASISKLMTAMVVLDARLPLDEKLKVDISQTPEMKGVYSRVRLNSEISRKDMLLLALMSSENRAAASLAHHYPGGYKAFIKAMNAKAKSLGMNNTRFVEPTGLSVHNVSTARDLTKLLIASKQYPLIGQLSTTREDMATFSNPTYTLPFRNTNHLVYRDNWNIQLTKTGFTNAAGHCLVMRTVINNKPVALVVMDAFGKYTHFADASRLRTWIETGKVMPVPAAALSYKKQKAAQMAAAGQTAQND

MepM = molecular target: T2, MepM (Escherichia coli, UniProt P0AFS9 41-440); experiment: MST; titration: NT647-labelled protein against a two-fold serial dilution (16 steps) of unlabelled ligand; 25 mM HEPES/NaOH, 150 mM NaCl, 0.05% Triton X-100, pH 7.5; Monolith NT.115; apparent constants; for NlpI with itself: dimer to monomers; settings: both partners purified
T2 construct: Peptidoglycan endopeptidase MepM of E. coli; source: purified as previously described in Moré et al (2019)
T2 sequence (looked up): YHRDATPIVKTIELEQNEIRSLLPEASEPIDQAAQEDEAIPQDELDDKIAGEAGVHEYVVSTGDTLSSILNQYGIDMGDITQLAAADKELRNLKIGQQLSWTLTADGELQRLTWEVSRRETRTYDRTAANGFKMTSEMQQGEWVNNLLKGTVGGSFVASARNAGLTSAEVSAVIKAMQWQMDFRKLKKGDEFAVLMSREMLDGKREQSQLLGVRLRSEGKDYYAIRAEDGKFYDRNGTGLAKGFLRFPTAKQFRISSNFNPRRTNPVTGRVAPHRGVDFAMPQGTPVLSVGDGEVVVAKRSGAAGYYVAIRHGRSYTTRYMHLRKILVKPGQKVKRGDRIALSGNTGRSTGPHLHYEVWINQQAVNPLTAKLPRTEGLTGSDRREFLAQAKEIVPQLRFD

PBP4, native, purified = molecular target: T3, PBP4, native, purified (Escherichia coli, UniProt P24228 21-477, where used as the labelled protein in MST: NT647 RED-NHS dye on amines); experiment: as above; settings: both partners purified
T3 construct: PBP4 (DD-endopeptidase) of E. coli, 'native PBP4' purified after Kishida et al (2006); Untagged ('native'); source: E. coli BL21 (λDE3), purified (HiTrap Q, hydroxyapatite, Superdex 200)
T3 sequence (P24228 21-477): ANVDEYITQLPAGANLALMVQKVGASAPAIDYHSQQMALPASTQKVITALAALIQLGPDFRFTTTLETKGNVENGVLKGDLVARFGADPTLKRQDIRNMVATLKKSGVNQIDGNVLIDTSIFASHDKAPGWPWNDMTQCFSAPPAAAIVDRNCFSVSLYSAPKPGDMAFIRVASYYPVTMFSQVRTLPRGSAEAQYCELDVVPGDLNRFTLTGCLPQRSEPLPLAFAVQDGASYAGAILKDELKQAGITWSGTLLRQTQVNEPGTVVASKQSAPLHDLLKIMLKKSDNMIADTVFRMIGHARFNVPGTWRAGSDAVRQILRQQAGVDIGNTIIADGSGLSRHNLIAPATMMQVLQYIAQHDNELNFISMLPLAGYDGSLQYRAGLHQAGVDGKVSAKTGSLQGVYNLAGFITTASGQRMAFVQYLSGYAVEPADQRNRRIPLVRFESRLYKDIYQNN

[1] = molecular target: the molecule itself; experiment: as above
[2] = molecular target: the molecule itself; experiment: AUC; sedimentation velocity, 45,000 rpm, 20°C, 25 mM HEPES/NaOH, 150 mM NaCl, pH 7.5; NlpI 0.3-1.2 mg/ml; c(s) model

B1: NlpI, soluble version lacking its membrane anchor (natural protein, Escherichia coli)
chain: SNTSWRKSEVLAVPLQPTLQQEVILARMEQILASRALTDDERAQLLYERGVLYDSLGLRALARNDFSQALAIRPDMPEVFNYLGIYLTQAGNFDAAYEAFDSVLELDPTYNYAHLNRGIALYYGGRDKLAQDDLLAFYQDDPNDPFRSLWLYLAEQKLDEKQAKEVLKQHFEKSDKEQWGWNIVEFYLGNISEQTLMERLKADATDNTSLAEHLSETNFYLGKYYLSLGDLDSATALFKLAVANNVHNFVEHRYALLELSLLGQDQDDLAESDQQ
modifications: where used as fl-NlpI in MST: NT647 RED-NHS dye on amines
notes: Outer membrane lipoprotein NlpI of E. coli, soluble version lacking its membrane anchor; Homodimer by AUC; also called fl-NlpI (fluorescently labelled); His-NlpI; source: E. coli BL21 (λDE3), purified (HisTrap HP, Superdex 200)
binding result (PBP7, purified): binds | Kd (MepM): 152 nM | Kd (PBP4, native, purified): 177 nM | Kd [1]: 126 nM | stoichiometry N [2]: 2
